According to paper PMC5225067:

Target: AD-Myo5 [S. cerevisiae]
Assay: yeast two-hybrid (β-galactosidase activity)
Settings: read off a plot

Substance | response (25 °C (no heat shock)) [mU] | response (39 °C (heat shock)) [mU]
She4-BD, wild type mutant S18A [S. cerevisiae] / AD-Myo5 [S. cerevisiae] chain 1 S18A | 0.34 | 0.45
She4-BD, wild type mutant S18E [S. cerevisiae] / AD-Myo5 [S. cerevisiae] chain 1 S18E | 0.075 | 0.17
human BD-UNC45-SM, wild type mutant S251A [human] / AD-Myo5 [S. cerevisiae] chain 1 S251A | 0.79 | 1
human BD-UNC45-SM, wild type mutant S251E [human] / AD-Myo5 [S. cerevisiae] chain 1 S251E | 0.29 | 0.52
